Source: patent US20190016794A1 (Boehringer Ingelheim, published 2019)

Columns and labels:
human TNF-alpha [1] = target: T1, human TNF-alpha (human, UniProt P01375 77-233); assay: cell-based or functional assay
human TNF-alpha [2] = target: T1, human TNF-alpha; assay: cell-based or functional assay; remark: listed apart in the source
human TNF-alpha [3] = target: T1, human TNF-alpha; assay: cell-based or functional assay; remark: listed apart in the source
human TNF-alpha [4] = target: T1, human TNF-alpha; assay: cell-based or functional assay; remark: listed apart in the source
recombinant human IL23 [5] = target: T2, recombinant human IL23 (human, UniProt P29460 23-328); assay: cell-based or functional assay
T2 sequence 1: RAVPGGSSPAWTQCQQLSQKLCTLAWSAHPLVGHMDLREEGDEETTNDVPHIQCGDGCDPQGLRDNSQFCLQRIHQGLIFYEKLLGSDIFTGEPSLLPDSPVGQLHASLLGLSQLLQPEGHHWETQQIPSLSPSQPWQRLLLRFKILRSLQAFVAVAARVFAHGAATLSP
T2 sequence 2: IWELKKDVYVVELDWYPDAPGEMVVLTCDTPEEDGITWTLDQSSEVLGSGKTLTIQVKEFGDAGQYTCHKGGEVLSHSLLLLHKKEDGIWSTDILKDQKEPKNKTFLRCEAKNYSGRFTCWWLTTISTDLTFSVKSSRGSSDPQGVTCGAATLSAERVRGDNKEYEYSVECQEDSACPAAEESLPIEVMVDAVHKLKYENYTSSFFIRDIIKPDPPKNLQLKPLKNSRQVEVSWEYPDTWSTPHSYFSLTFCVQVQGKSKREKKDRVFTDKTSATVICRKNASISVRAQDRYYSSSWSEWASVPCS

recombinant human IL23 [6] = target: T2, recombinant human IL23; assay: cell-based or functional assay; remark: listed apart in the source
[7] = target: T3, recombinant cynomolgus IL23 (cynomolgus); assay: cell-based or functional assay
T3 chain 1: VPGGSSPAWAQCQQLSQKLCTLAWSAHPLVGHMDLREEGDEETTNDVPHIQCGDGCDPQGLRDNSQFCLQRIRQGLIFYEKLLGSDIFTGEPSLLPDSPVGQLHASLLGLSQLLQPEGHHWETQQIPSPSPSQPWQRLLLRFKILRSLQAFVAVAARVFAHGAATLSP
T3 chain 2: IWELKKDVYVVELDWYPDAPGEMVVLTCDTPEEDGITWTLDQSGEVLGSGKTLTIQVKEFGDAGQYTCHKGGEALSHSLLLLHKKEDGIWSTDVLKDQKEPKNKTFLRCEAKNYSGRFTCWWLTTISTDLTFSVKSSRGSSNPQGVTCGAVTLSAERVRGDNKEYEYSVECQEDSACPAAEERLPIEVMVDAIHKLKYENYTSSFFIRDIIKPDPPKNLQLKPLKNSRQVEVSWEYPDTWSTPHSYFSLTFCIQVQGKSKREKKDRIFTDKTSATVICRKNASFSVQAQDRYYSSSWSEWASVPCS

recombinant human IL23 [8] = target: T2, recombinant human IL23; assay: cell-based or functional assay; remark: listed apart in the source
recombinant human IL23 [9] = target: T2, recombinant human IL23; assay: cell-based or functional assay; remark: listed apart in the source
recombinant human IL23 [10] = target: T2, recombinant human IL23; assay: cell-based or functional assay; remark: listed apart in the source
recombinant human IL23 [11] = target: T2, recombinant human IL23; assay: cell-based or functional assay; remark: listed apart in the source
membrane bound TNF-alpha [12] = target: T4, membrane bound TNF-alpha; assay: flow cytometry, mTNF-transfected CHO cells (geomean)
T4 construct: whole, on cells; also called mTNF; membrane expressed TNF-alpha
Procedure: (§1) All reagents were prepared in flow cytometry staining buffer (BioLegend). Membrane expressed TNF-alpha transfected cell lines (Jurkat and CHO) and parental cell lines were harvested from tissue culture vessels, washed, counted and resuspended to 1×10̂6 cells/ml in flow cytometry staining buffer. One hundred microliters of the cell suspension was added to 96 well microtiter plates and placed on ice. Titrations of test compounds were prepared and 50 uL was added to the cells. After sixty minute incubation on ice, the cell+test compounds were washed and 50 uL of a secondary antibody (Jackson ImmunoResearch) was added. The samples were incubated in the dark, at 4 C, for 60 minutes, followed by washes. After a final wash the cells were resuspended in 60 uL of fixative (BD Bioscience). Median fluorescence was determined for each sample in a flow cytometer and plotted versus the concentration of the test sample. EC₅₀ values were calculated using the 4 Parameter Logistic enabled by the Excel add-in XLfit (Activity Base software, ID Business Solutions, Ltd.).

membrane bound TNF-alpha [13] = target: T4, membrane bound TNF-alpha; assay: flow cytometry, mTNF-transfected Jurkat cells (geomean)
Procedure: as §1

human TNF-alpha [14] = target: T1, human TNF-alpha; assay: SPR (ProteOn XPR36), compound captured on goat anti-human IgG Fc, antigen injected
Procedure: (§2) SPR experiments were performed on a ProteOn XPR36 instrument (Bio Rad). A GLM chip was preconditioned with sequential injections of 60 sec of 0.5% SDS, 50 mM NaOH, and 100 mM HCl at a flow rate of 30 μl/min both vertical and horizontal directions. […] Goat-anti-human IgG (GAHA) Fc gamma (Invitrogen) at a concentration of 30 μg/ml in 10 mM, pH 5.0 sodium acetate buffer was immobilized to 8,000 resonance units on the activated GLM chip in 6 horizontal channels. The chip was finally deactivated with 1 M ethanolamine HCl in 6 horizontal channels. The prepared GAHA chip was rotated to vertical direction to capture test compounds, over 5 vertical channels and the last channel was used as a column reference. The captured chip was then rotated again to the horizontal direction for binding. […] The dissociation was allowed for 2 hour. […] The regenerated GAHA was ready for another binding cycle.

Linked human IL-23 = target: T5, Linked human IL-23 (human, UniProt P29460 23-328); assay: SPR (ProteOn XPR36), compound captured on goat anti-human IgG Fc, linked human IL-23 injected at 0.625-10 nM
T5 construct: Printed as 'Linked human IL-23 (Boehringer Ingelheim Pharmaceuticals, Inc)' in the SPR method
T5 sequence 1: T2 sequence 1
T5 sequence 2: T2 sequence 2
Procedure: as §2

T1 sequence (P01375 77-233 limits assumed): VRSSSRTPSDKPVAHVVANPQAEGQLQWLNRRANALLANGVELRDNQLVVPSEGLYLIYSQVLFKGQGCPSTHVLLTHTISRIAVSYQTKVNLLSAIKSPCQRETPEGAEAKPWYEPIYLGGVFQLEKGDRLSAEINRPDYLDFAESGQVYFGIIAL
T4 sequence (P01375 whole entry): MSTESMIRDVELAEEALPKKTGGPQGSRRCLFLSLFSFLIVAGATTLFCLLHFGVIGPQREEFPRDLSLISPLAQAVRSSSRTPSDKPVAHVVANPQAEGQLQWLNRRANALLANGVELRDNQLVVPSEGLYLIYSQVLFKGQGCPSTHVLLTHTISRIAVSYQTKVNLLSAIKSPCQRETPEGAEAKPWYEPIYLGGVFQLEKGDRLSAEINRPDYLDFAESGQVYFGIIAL

- HeLa IL8 Hi-Hu-TNF IC50 (human TNF-alpha [2]): 0.32 nM
- HeLa IL8 Hi-Hu-TNF IC90 (human TNF-alpha [2]): 0.53 nM
- HeLa IL8 Lo-Hu-TNF IC50 (human TNF-alpha [2]): 0.0092 nM
- HeLa IL8 Lo-Hu-TNF IC90 (human TNF-alpha [2]): 0.035 nM
- TNF-IL8 Whole Blood IC50 (human TNF-alpha [3]): 0.34 nM
- TNF-IL8 Whole Blood IC90 (human TNF-alpha [3]): 0.61 nM
- Dual Phospho Jurkat-pNf-Kb IC50 (human TNF-alpha [4]): 260 pM
- Dual Phospho Jurkat-pNf-Kb IC90 (human TNF-alpha [4]): 340 pM
- Dual Phospho DB-pSTAT3 IC50 (recombinant human IL23 [5]): 230 pM
- Dual Phospho DB-pSTAT3 IC90 (recombinant human IL23 [5]): 770 pM
- hIL23 pSTAT3 DB assay IC50 (recombinant human IL23 [6]): 300 pM
- hIL23 pSTAT3 DB assay IC90 (recombinant human IL23 [6]): 700 pM
- CynoIL23 MSA IC50 [7]: 0.077 nM
- CynoIL23 MSA IC90 [7]: 1.2 nM
- huIL23 MSA IC50 (recombinant human IL23 [8]): 0.2 nM
- huIL23 MSA IC90 (recombinant human IL23 [8]): 1.7 nM
- IL23A pSTAT3 (MG) IC50 (recombinant human IL23 [9]): 140 pM
- IL23A pSTAT3 (MG) IC90 (recombinant human IL23 [9]): 830 pM
- IC50, IL-23-dependent STAT3 activation (DB-STAT3Luc10 luciferase) (recombinant human IL23 [10]): 0.212 nM
- IC90, IL-23-dependent STAT3 activation (DB-STAT3Luc10 luciferase) (recombinant human IL23 [10]): 0.965 nM
- First test IC50, IL-23-dependent STAT3 activation (luciferase) (recombinant human IL23 [11]): 0.17 nM
- GEOMEAN IC50, IL-23-dependent STAT3 activation (luciferase) (recombinant human IL23 [11]): 0.19 nM
- GEOMEAN IC90, IL-23-dependent STAT3 activation (luciferase) (recombinant human IL23 [11]): 0.859 nM
- EC50 (membrane bound TNF-alpha [12]): 0.45 nM
- EC50 (membrane bound TNF-alpha [13]): 0.2 nM
- Kd (human TNF-alpha [14]): 0.00411 nM
- Kd (Linked human IL-23): 0.007 nM
B1: Compound E (bispecific antibody)
chain 1: DIQMTQSPSSLSASVGDRVTITCKASRDVAIAVAWYQQKPGKVPKLLIYWASTRHTGVPSRFSGSGSRTDFTLTISSLQPEDVADYFCHQYSSYPFTFGSGTKLEIKGGGSGGGGQVQLVESGGGVVQPGRSLRLSCAASGFIFSSYAMHWVRQAPGNGLEWVAFMSYDGSNKKYADSVKGRFTISRDNSKNTLYLQMNSLRAEDTAVYYCARDRGIAAGGNYYYYGMDVWGQGTTVTVSSLGGGSGASTKGPSVFPLAPSSKSTSGGTAALGCLVKDYFPEPVTVSWNSGALTSGVHTFPAVLQSSGLYSLSSVVTVPSSSLGTQTYICNVNHKPSNTKVDKRVEPKSCDKTHTCPPCPAPEAAGGPSVFLFPPKPKDTLYITREPEVTCVVVDVSHEDPEVKFNWYVDGVEVHNAKTKPREEQYNSTYRVVSVLTVLHQDWLNGKEYKCKVSNKALPAPIEKTISKAKGQPREPQVYTLPPSREEMTKNQVSLTCLVKGFYPSDIAVEWESNGQPENNYKTTPPVLDSDGSFFLYSKLTVDKSRWQQGNVFSCSVMHEALHNHYTQKSLSLSPGK
chain 2: EIVLTQSPATLSLSPGERATLSCRASQSVYSYLAWYQQKPGQAPRLLIYDASNRATGIPARFSGSGSGTDFTLTISSLEPEDFAVYYCQQRSNWPPFTFGPGTKVDIKGGGSGGGGQVQLVQSGAEVKKPGSSVKVSCKASGYTFTDQTIHWMRQAPGQGLEWIGYIYPRDDSPKYNENFKGKVTITADKSTSTAYMELSSLRSEDTAVYYCAIPDRSGYAWFIYWGQGTLVTVSSLGGGSGRTVAAPSVFIFPPSDEQLKSGTASVVCLLNNFYPREAKVQWKVDNALQSGNSQESVTEQDSKDSTYSLSSTLTLSKADYEKHKVYACEVTHQGLSSPVTKSFNRGEC
notes: GS linkers, isotype IgG1KO-YTE
- L929 TNF Cytotox IC50 (human TNF-alpha [1]): 0.0041 nM
- L929 TNF Cytotox IC90 (human TNF-alpha [1]): 0.017 nM
